Measured values published in PMC6389942.

Target: HA-Cep57 (centrosomal protein of 57 kDa, full length), Q86XR8-1
Experiment: co-IP (FLAG IP, HA-Cep57 western blot band quantification)
Settings: HEK293T cells; three independent experiments; parent: est. 1.0; read off a plot

Chain of HA-Cep57 (centrosomal protein of 57 kDa, full length), Q86XR8-1 (Q86XR8 whole entry): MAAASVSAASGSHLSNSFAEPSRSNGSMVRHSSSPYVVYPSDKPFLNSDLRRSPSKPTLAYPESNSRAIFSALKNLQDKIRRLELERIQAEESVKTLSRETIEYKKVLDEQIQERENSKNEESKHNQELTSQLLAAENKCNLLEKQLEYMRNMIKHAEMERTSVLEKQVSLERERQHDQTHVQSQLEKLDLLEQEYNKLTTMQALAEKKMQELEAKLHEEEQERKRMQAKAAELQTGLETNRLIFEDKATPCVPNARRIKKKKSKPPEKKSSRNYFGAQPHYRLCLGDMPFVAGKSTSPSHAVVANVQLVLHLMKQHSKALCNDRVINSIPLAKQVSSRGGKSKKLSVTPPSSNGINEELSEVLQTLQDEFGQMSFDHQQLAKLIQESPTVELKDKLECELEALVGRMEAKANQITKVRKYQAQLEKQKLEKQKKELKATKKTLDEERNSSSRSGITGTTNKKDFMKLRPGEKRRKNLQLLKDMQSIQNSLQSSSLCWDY

response: 0.11
Substance: FLAG-PCNT 2536–3336 WT K3154del
